Article PMC12104086, “Identification of a multiple DAMP scavenger mimicking the DAMP-binding site of TLR4 to ameliorate lethal sepsis” (Frontiers in Immunology, 2025)

What was measured:
[1] = molecular target: T1, recombinant mouse cold-inducible RNA-binding protein (mouse, UniProt P60824 1-172); assay: SPR; OpenSPR (Nicoya); OP18 (10 µg/mL in 10 mM acetate pH 5) immobilised on channel 2, channel 1 as reference; analytes eCIRP 31.3-2,000 nM, HMGB1 10-450 nM, αvβ3 integrin 10-100 nM, histone H3 22.5-270 nM in HBST (10 mM HEPES, 150 mM NaCl, 0.005% P20, 5 mM EDTA, pH 7.4); 40 µL/min, 20°C; global fit 1:1; details: both partners purified
T1 construct: also called rmCIRP; eCIRP
T1 sequence (looked up): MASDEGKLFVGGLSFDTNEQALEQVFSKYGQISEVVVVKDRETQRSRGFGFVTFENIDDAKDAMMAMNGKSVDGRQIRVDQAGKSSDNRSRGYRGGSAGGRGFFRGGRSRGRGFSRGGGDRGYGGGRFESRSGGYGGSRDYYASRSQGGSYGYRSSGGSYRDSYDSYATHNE

[2] = molecular target: T2, recombinant human high mobility group box 1 (human, UniProt P09429 1-215); assay: as above; details: both partners purified
T2 construct: human HMGB1, recombinant, bought; see the vendor's sheet; also called rhHMGB1; HMGB1; source: bought: R&D System (Cat. No. 1690-HMB-050)
T2 sequence (looked up): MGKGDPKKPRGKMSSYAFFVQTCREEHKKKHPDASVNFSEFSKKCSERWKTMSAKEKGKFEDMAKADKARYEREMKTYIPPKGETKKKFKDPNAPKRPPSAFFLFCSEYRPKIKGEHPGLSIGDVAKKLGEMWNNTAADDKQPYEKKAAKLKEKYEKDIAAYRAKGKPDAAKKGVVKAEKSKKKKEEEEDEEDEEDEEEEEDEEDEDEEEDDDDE

B1: opsonic peptide 18 (peptide)
peptide: GNFNSSNIMKTCLQNRGD
notes: also called OP18; source: synthetic peptide (GenScript)
binding result [1]: binds | binding result [2]: binds
